In publication PMC10579538 (The Journal of Biological Chemistry, 2023):

How the values were obtained:
actin = actin (UniProt P68135)
[1] = target: myosin-7a subfragment-1 (motor domain and the first IQ motif) (human); assay: mass photometry
[2] = target: full-length human myosin-7a heavy chain (isoform 1, long N-terminal isoform) (human, UniProt Q13402-1 1-2215); assay: single-molecule two-color TIRF co-migration on actin
full-length human myosin-7a heavy chain (isoform 1, long N-terminal isoform), sequence (Q13402 whole entry, canonical isoform): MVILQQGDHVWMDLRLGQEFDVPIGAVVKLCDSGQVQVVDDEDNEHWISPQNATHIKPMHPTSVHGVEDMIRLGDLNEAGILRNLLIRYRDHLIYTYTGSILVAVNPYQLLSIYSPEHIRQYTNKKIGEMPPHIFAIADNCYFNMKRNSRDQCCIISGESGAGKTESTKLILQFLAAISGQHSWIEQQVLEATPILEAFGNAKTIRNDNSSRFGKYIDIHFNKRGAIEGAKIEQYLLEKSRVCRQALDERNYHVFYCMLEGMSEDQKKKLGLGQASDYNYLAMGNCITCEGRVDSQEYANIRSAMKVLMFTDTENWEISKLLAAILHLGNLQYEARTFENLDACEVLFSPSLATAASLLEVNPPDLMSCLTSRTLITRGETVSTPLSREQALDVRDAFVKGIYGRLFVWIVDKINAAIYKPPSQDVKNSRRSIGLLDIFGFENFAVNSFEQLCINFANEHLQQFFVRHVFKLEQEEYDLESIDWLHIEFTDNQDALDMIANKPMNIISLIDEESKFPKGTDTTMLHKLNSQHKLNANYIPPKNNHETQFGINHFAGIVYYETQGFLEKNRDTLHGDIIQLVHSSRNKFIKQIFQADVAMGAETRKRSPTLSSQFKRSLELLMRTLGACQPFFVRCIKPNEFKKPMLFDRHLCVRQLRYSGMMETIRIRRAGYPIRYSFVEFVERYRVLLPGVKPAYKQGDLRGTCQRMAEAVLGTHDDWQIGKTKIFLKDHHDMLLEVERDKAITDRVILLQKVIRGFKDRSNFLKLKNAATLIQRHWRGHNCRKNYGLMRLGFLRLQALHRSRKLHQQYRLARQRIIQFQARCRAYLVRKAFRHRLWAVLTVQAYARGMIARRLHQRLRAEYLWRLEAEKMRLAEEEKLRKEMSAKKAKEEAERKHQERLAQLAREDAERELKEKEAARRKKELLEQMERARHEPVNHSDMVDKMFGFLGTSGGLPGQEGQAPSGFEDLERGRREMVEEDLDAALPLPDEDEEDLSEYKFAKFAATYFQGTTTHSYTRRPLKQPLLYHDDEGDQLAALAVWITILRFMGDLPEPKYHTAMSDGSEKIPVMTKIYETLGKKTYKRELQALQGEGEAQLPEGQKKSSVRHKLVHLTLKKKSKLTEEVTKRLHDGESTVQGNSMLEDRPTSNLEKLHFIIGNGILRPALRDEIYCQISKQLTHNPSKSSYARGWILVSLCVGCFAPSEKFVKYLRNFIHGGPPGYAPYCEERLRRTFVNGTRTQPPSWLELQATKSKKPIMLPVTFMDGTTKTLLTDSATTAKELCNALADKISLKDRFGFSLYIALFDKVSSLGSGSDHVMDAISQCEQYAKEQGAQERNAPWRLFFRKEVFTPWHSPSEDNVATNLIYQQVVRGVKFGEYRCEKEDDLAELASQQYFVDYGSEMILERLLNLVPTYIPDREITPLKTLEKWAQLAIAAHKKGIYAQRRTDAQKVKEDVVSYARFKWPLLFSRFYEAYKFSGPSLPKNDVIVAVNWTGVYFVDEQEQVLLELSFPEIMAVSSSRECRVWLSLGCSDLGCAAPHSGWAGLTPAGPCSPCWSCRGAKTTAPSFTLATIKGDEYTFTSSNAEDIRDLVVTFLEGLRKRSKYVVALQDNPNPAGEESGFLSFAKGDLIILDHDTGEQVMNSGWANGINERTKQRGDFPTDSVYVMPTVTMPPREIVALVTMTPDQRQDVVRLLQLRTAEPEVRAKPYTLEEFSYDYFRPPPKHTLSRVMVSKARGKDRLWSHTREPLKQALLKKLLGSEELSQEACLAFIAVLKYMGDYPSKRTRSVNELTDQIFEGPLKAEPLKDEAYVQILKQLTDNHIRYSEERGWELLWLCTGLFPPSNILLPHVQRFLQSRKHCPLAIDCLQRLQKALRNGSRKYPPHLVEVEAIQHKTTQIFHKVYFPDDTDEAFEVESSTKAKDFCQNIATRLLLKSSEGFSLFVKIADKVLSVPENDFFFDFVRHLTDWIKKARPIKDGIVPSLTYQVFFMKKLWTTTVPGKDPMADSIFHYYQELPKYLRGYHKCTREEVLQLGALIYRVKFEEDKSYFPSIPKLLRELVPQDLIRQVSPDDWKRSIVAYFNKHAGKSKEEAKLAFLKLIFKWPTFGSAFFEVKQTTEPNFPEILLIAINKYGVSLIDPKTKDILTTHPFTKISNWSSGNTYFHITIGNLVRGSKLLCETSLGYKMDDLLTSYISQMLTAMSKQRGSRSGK

Question: “myosin-7a subfragment-1 (motor domain and the first IQ motif) (domain or fragment)” was tested. Which K ATPase of the actin-activated steady-state ATPase (NADH-coupled assay) (actin) did it give?
Answer: 11 µM

Question: How did the stoichiometry N [1] turn out when “regulatory light chain (from UniProt O14950 1-172) (natural protein)” was run?
Answer: 1

B1: mCherry-tagged MyRIP (myosin and Rab interacting protein) (natural protein, UniProt Q8NFW9-1 1-859, looked up)
chain: MGRKLDLSGLTDDETEHVLQVVQRDFNLRKKEEERLSELKQKLDEEGSKCSILSKHQQFVEHCCMRCCSPFTFLVNTKRQCGDCKFNVCKSCCSYQKHEKAWVCCVCQQARLLRAQSLEWFYNNVKSRFKRFGSAKVLKNLYRKHRLESGACFDILGGSLFESNLENEGSISGSDSTFYRQSEGHSVMDTLAVALRVAEEAIEEAISKAEAYGDSLDKQNEASYLRDHKEELTEELATTILQKIIRKQKSKSEQQVEEEPGWPHPQSCSTKVADEGTSASPGGYRAPAALWRSQSAFSITGEEALKTPPVEAPSRQPRDQGQHPRAESALPSWKSVDRLDETNLAPVLQSPDGNWVALKDGAPPPTRLLAKPKSGTFQALEVASSVASAYDEMGSDSEEDFDWSEALSKLCPRSRALPRNPQPQPTQAQSSDQGPIAASPSSALSPNPEAMCSDSETSSAGSSREVGHQARLSWLQRKAPRNPAAEKMRLHGELDVNFNPQLASRETSDSSEPEEAPHTTDRRARRWRRARLGSEEPSKEPSSPSAQLRDLDTHQVSDDLSETDISNEARDPQTLTDTTEEKRRNRLYELAMKMSEKETSSGEDQESEPKTESENQKESLSSEDNSQSVQEELKKKFSAVSLCNISTEVLKVINATEELIAGSTGPWESPQVPPDRQKGMFPRGTDQVRLDEQLTSLEENVYLAAGTVYGLETQLTELEDAARCIHSGTDETHLADLEDQVATAAAQVHHAELQISDIESRISALTIAGLNIAPCVRFTRRRDQKQRTQVQTIDTSRQQRRKLPAPPVKAEKIETSSVTTIKTFNHNFILQGSSTNRTKERKGTTKDLMEPALESAVMY
Question: Does B1 bind [2]?
Answer: binds
